{"source": "paper PMC9226502", "about": "“MutL binds to 3′ resected DNA ends and blocks DNA polymerase access”", "binders": {"B1": {"name": "blunt-ended DNA (dsDNA)", "DNA 1": "AAGTGTCTGTCGTTTT", "DNA 2": "AAAACGACAGACACTT"}, "B2": {"name": "3' resected primer/template junction (dsDNA)", "DNA 1": "AAGTGTCTGTCGTTTTAAGGACGAAGGACTC", "DNA 2": "GAGTCCTTCGTCCTT"}, "B3": {"name": "5' resected primer/template junction (dsDNA)", "DNA 1": "B2 DNA 1", "DNA 2": "AAAACGACAGACACTT"}, "B4": {"name": "cryo-EM 3' resected DNA (dsDNA)", "DNA 1": "AAACAGGCTTAGGCTGGAGGATCAGCTTAGCTTAGAGTCATC", "DNA 2": "GATGACTCTAAGCTAAGCTGA"}}, "key": {"[1]": {"target": "T1, MutL WT (Escherichia coli, UniProt P23367 1-615)", "test": "fluorescence anisotropy; 3 mM ATP; FA: 20 mM HEPES pH 7.5, 150 mM NaCl, 5 mM MgCl2, 0.08% Tween 20, 20% glycerol, 2 mM DTT, 5 nM DNA, 25 C; BLI: 25 mM HEPES pH 7.5, 150 mM NaCl, 5 mM MgCl2, 2 mM", "settings": "protein: recombinant, (HisTrap purified), chain copies: 2"}, "[2]": {"target": "MutL H319A (Escherichia coli, UniProt P23367 1-615, H319A)", "test": "fluorescence anisotropy; AMPPNP (1 mM, Fig 3C); FA: 20 mM HEPES pH 7.5, 150 mM NaCl, 5 mM MgCl2, 0.08% Tween 20, 20% glycerol, 2 mM DTT, 5 nM DNA, 25 C; BLI: 25 mM HEPES pH 7.5, 150 mM NaCl, 5 mM MgCl2, 2 mM", "settings": "protein: recombinant; (HisTrap purified); chain copies: 2; label: 5'-FAM on primer S8; 15 bp duplex, 5' overhang 16 nt on template (recessed primer 3' end)"}, "[3]": {"target": "MutL H270A+H319A (Escherichia coli, UniProt P23367 1-615, H270A;H319A)", "test": "fluorescence anisotropy; AMPPNP (1 mM, Fig 3C); FA: 20 mM HEPES pH 7.5, 150 mM NaCl, 5 mM MgCl2, 0.08% Tween 20, 20% glycerol, 2 mM DTT, 5 nM DNA, 25 C; BLI: 25 mM HEPES pH 7.5, 150 mM NaCl, 5 mM MgCl2, 2 mM", "settings": "protein: recombinant; (HisTrap purified); chain copies: 2; label: 5'-FAM on primer S8; 15 bp duplex, 5' overhang 16 nt on template (recessed primer 3' end)"}, "[4]": {"target": "MutL H270A (Escherichia coli, UniProt P23367 1-615, H270A)", "test": "fluorescence anisotropy; AMPPNP (1 mM, Fig 3C); FA: 20 mM HEPES pH 7.5, 150 mM NaCl, 5 mM MgCl2, 0.08% Tween 20, 20% glycerol, 2 mM DTT, 5 nM DNA, 25 C; BLI: 25 mM HEPES pH 7.5, 150 mM NaCl, 5 mM MgCl2, 2 mM", "settings": "protein: recombinant; (HisTrap purified); chain copies: 2; label: 5'-FAM on primer S8; 15 bp duplex, 5' overhang 16 nt on template (recessed primer 3' end)"}, "[5]": {"target": "T1, MutL WT", "test": "fluorescence anisotropy; AMPPNP (3 mM; Fig 3C legend 1 mM); FA: 20 mM HEPES pH 7.5, 150 mM NaCl, 5 mM MgCl2, 0.08% Tween 20, 20% glycerol, 2 mM DTT, 5 nM DNA, 25 C; BLI: 25 mM HEPES pH 7.5, 150 mM NaCl, 5 mM MgCl2, 2 mM", "settings": "protein: recombinant; (HisTrap purified); chain copies: 2; label: 5'-FAM on primer S8; 15 bp duplex, 5' overhang 16 nt on template (recessed primer 3' end)"}, "[6]": {"target": "T1, MutL WT", "test": "fluorescence anisotropy; 3 mM ATP (Table 2 gives 0.64 uM); FA: 20 mM HEPES pH 7.5, 150 mM NaCl, 5 mM MgCl2, 0.08% Tween 20, 20% glycerol, 2 mM DTT, 5 nM DNA, 25 C; BLI: 25 mM HEPES pH 7.5, 150 mM NaCl, 5 mM MgCl2, 2 mM", "settings": "protein: recombinant; (HisTrap purified); chain copies: 2; label: 5'-FAM on primer S8; 15 bp duplex, 5' overhang 16 nt on template (recessed primer 3' end)"}, "[7]": {"target": "T1, MutL WT", "test": "cryo-EM structure (3.7 A); 3 mM AMPPNP, 5 mM Mg2+; FA: 20 mM HEPES pH 7.5, 150 mM NaCl, 5 mM MgCl2, 0.08% Tween 20, 20% glycerol, 2 mM DTT, 5 nM DNA, 25 C; BLI: 25 mM HEPES pH 7.5, 150 mM NaCl, 5 mM MgCl2, 2 mM", "settings": "protein: recombinant; (HisTrap purified); chain copies: 2; 21 bp duplex, 5' overhang 21 nt on template"}}}
{"binder": "B1", "values": [{"measurement": "binding result", "setting": "[1]; label: 3'-FAM on S7", "result": "no binding"}]}
{"binder": "B2", "values": [{"measurement": "Kd", "setting": "[2]", "result": "4510 ± 1180", "unit": "nM"}, {"measurement": "binding result", "setting": "[3]", "result": "no binding"}, {"measurement": "Kd", "setting": "[4]", "result": "1590 ± 230", "unit": "nM"}, {"measurement": "Kd", "setting": "[5]", "result": "290 ± 120", "unit": "nM"}, {"measurement": "Kd", "setting": "[6]", "result": "650 ± 320", "unit": "nM"}]}
{"binder": "B3", "values": [{"measurement": "binding result", "setting": "[1]; label: 3'-FAM on primer S7", "result": "no binding"}]}
{"binder": "B4", "values": [{"measurement": "binding result", "setting": "[7]", "result": "binds"}]}
